Consider 2 substances from patent US10088487B2, “Method for the quantitative characterization of amyloid and/or aggregating peptides and/or proteins in a sample” (Forschungszentrum Juelich GmbH, priority 2013, dated 2018).

The target of assay [1] is T1, Aβ(1-42) oligomers (Homo sapiens, UniProt P05067).
T1 construct: 1 mg of lyophilized Aβ(1-42) (Bachem, Heidelberg); purchased Bachem, Heidelberg
Kind of assay: Density gradient centrifugation combined with RP-HPLC: effect of active ingredient on size distribution of Aβ(1-42) aggregates. It counts as biochemical. Conditions: for quantity of Aβ oligomers in fractions 4 to 6: co-incubation 40 min, vs control without active ingredient. The protocol: For the following examples of embodiments, only one ultracentrifuge and one HPLC system having a suitable separating column and a UV detector were required. In order to determine the reduction of the Aβ oligomer proportion in an aggregate mixture, pretreated and dried Aβ(1-42) peptide was dissolved in buffer and incubated until the greatest possible Aβ oligomer proportion was obtained. The active ingredient to be analyzed was then added to this oligomer-enriched sample.
1 mg of lyophilized Aβ(1-42) (Bachem, Heidelberg) was incubated, after being removed from the freezer, for 10 to 30 min at room temperature (RT) in order to equalize the temperature of the peptide pellet and of the surrounding environment and thus to avoid moisture condensing from the air. Thereafter, the Aβ peptide was dissolved in HFIP (1,1,1,3,3,3-hexafluoro-2-propanol) (Sigma-Aldrich, Taufkirchen) in a concentration of 1 mg/700 μl and incubated overnight at RT with shaking until full dissolution was achieved, in order to ensure that the Aβ(1-42) exists entirely as monomers at this point in time. The Aβ(1-42) was then aliquoted in an amount of 36 μg per Eppendorf vessel. To remove the HFIP, the aliquots were left to stand open under the extractor for approximately 30 min. The rotational vacuum concentrator (rotational vacuum concentrator RVC 2-18, Christ, Mainz-Mombach) was pre-cooled for approximately 30 min. The Aβ(1-42) aliquots were then dried for a further 30 min in the rotational vacuum concentrator so that the last HFIP residues could also evaporate off. The aliquoted, dried Aβ(1-42) was stored at −20° C. until use.
Prior to the experiment, one Aβ(1-42) aliquot was dissolved to 80 μM in 100 μl of 10 mM NaH2PO4/Na2HPO4 buffer (Sigma-Aldrich, Taufkirchen), pH 7.4 and incubated at RT for 6 h with shaking. The incubation time of 6 h was optimized for this specific Aβ from this specific company in order to ensure that the largest possible proportion of the Aβ exists as oligomers, so as to be able to measure the reduction thereof as unambiguously as possible. For other Aβ peptides from other manufacturers, the incubation time may vary and should/can be adapted accordingly.
Thereafter, the active ingredient candidate to be analyzed was added in a quantity of 10 or 20 μM. The co-incubation of the Aβ/active ingredient solution took place for 40 min at RT with continuous shaking. When no active ingredient was added (control), the Aβ solution was treated in the same way.
The samples were then layered onto a pre-formed density gradient (see Table 1). The gradient material used consisted of a 60% strength (w/v) iodixanol solution named Optiprep™ (Axis-Shield, Oslo, Norway). It is a dimeric compound of iohexol having the systematic name 5,5-[(2-hydroxy-1,3-propanediyl)-bis(acetylimino)]bis-[N,N′-bis(2,3-hydroxypropyl)-2,4,6-triiodobenzenedicarboxamide]. […]
The non-linear density gradient was centrifuged at 4° C. and 259,000×g in a TLS-55 swing-out rotor (Beckman-Coulter, Palo Alto, USA) for 3 h in a TL 100 ultracentrifuge (Beckman-Coulter, Palo Alto, USA). The density gradient is measured by refractometric determination of the iodixanol concentration in the individual fractions. An estimate of the size of sedimented protein particles based on the position in the gradient at the end of the centrifugation takes place on the basis of a calibration using marker proteins of known size and shape, which were analyzed under identical centrifugation conditions on the gradient. […]

Assay [2] relates to transgenic AD mice. Particulars: oral administration with drinking water; cited from earlier work.
Assay [3] relates to Aβ oligomers. Conditions: according to what is presently known; cited from earlier work.

Non-standard residues stand in square brackets, D forms with d. No end group written: not given here.

T1 sequence (P05067 672-713): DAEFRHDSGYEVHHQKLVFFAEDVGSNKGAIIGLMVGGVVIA
Chain of Aβ oligomers (P05067 672-711 limits assumed): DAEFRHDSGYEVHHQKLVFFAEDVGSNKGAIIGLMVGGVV

As for “D3D3: tandem dimer of the D-peptide D3; SEQ ID NO: 2 ([dR][dP][dR][dT][dR][dL][dH][dT][dH][dR][dN][dR][dR][dP][dR][dT][dR][dL][dH][dT][dH][dR][dN][dR])”, the “quantity of Aβ oligomers in fractions 4 to 6” value in assay [1] (10 μM D3D3, 80 μM Aβ(1-42) pre-incubated 6 h) was “reduction in the quantity of oligomers”. Besides, in assay [1] (10 μM D3D3, vs control without active ingredient), the “proportion of large aggregates in fractions 11 to 14” value was “much greater”. Also, the “effect in eliminating oligomeric Aβ species compared with D3” value in assay [1] (10 μM D3D3 versus 20 μM D3) is “much more pronounced effect”.

In the case of “D3: D-enantiomeric peptide identified by mirror image phage display selection against predominantly monomeric Aβ(1-42); SEQ ID NO: 1 ([dR][dP][dR][dT][dR][dL][dH][dT][dH][dR][dN][dR])”, in assay [2], the “cognitive capabilities of treated transgenic AD mice” value was “significantly improved cognitive capabilities” and the “plaques in treated transgenic AD mice” value is reported as “considerably fewer plaques”. Further, the “quantity of Aβ oligomers in fractions 4 to 6” value in assay [1] (20 μM D3, 80 μM Aβ(1-42) pre-incubated 6 h) is listed as “reduction in the quantity of oligomers”. Further, the “proportion of large aggregates in fractions 11 to 14” value in assay [1] (20 μM D3, vs control without active ingredient) is “much greater”. Also, the “effect on toxic Aβ oligomers (conversion into non-toxic, non-amyloidogenic, ThT-negative amorphous aggregates)” value in assay [3] is listed as “destroys the particularly toxic Aβ oligomers”.
